This note sets out measurements from patent US20190367612A1 (Daiichi Sankyo, published 2019).

Changes are numbered by the printed parent chain.

Sequences and labels used below:
B1: humanized anti-GPRC5D antibody h2B1_H4/L5 (antibody, human IgG1, kappa, V domains shown)
VH: QVTLKESGPALVKPTQTLTLTCTFSGFSLNTYDMGVGWIRQPPGKGLEWLANIWWDDDKYYSPSLKSRLTITKDTSNNQAVLTMTNMDPVDTATYYCARIETVRVSRKGFAHWGQGTLVTVSS
VL: ATRMTQSPSSFSASTGDRVTITCKASQSVGINVDWYQQKPGKSPKLLIYGASNRHTGVPSRFSGSGFGRDFTLTISSLQSEDFATYYCLQHGSIPPTFGGGTKVEIKR
notes: Human IgG1 / kappa
B2: humanized anti-GPRC5D antibody h7B4_H3/L2 (antibody, human IgG1, kappa)
heavy: not shown
light: DIQMTQSPSSLSLSPGERATLSCKASQNINKYLDWYQQKPGQPPRLLIYNTNNLHTGIPDRFSGSGSGTDYTLTISRLEPEDFAVYYCLQRNSWYTFGQGTKVEIKRTVAAPSVFIFPPSDEQLKSGTASVVCLLNNFYPREAKVQWKVDNALQSGNSQESVTEQDSKDSTYSLSSTLTLSKADYEKHKVYACEVTHQGLSSPVTKSFNRGEC
notes: Human IgG1 / kappa
B3: humanized anti-GPRC5D antibody h2B1_H2/L3 (antibody, human IgG1, kappa, V domains shown)
VH: QVQLVESGGGLVKPSQTLSLTCTFSGFSLNTYDMGVGWIRQPPGKGLEWIGNIWWDDDKYYNPSLKSRVTISKDTSNNQASLKLSSVTAADTAVYYCARIETVRVSRKGFAHWGQGTLVTVSS
VL: DTVMTQSPDSLAVSLGERATINCKASQSVGINVDWYQQKPGQPPKLLIYGASNRHTGVPDRFSGSGFGRDFTLTISSLQAEDVAVYYCLQHGSIPPTFGQGTKVEIKR
notes: Human IgG1 / kappa
B4: humanized anti-GPRC5D antibody h2B1_H2/L5 (antibody, human IgG1, kappa, V domains shown)
VH: B3 VH
VL: B1 VL
notes: Human IgG1 / kappa
B5: humanized anti-GPRC5D antibody h2B1_H4/L3 (antibody, human IgG1, kappa, V domains shown)
VH: B1 VH
VL: B3 VL
notes: Human IgG1 / kappa
B6: humanized anti-GPRC5D antibody h2B1_H1/L1 (antibody, human IgG1, kappa, V domains shown)
VH: B3 VH with K73V, N77K
VL: B3 VL with F67S
notes: Human IgG1 / kappa
B7: humanized anti-GPRC5D antibody h2B1_H2/L2 (antibody, human IgG1, kappa, V domains shown)
VH: B3 VH
VL: B3 VL with R69T
notes: Human IgG1 / kappa
B8: humanized anti-GPRC5D antibody h2B1_H4/L4 (antibody, human IgG1, kappa, V domains shown)
VH: B1 VH
VL: B3 VL with P43S
notes: Human IgG1 / kappa
B9: humanized anti-GPRC5D antibody h2B1_H2/L4 (antibody, human IgG1, kappa, V domains shown)
VH: B3 VH
VL: B3 VL with P43S
notes: Human IgG1 / kappa
B10: humanized anti-GPRC5D antibody h2B1_H3/L3 (antibody, human IgG1, kappa, V domains shown)
VH: B3 VH with G51A
VL: B3 VL
notes: Human IgG1 / kappa
B11: humanized anti-GPRC5D antibody h2B1_H3/L5 (antibody, human IgG1, kappa, V domains shown)
VH: B3 VH with G51A
VL: B1 VL
notes: Human IgG1 / kappa
B12: humanized anti-GPRC5D antibody h2B1_H4/L1 (antibody, human IgG1, kappa, V domains shown)
VH: B1 VH
VL: B3 VL with F67S
notes: Human IgG1 / kappa
B13: humanized anti-GPRC5D antibody h2B1_H3/L4 (antibody, human IgG1, kappa, V domains shown)
VH: B3 VH with G51A
VL: B3 VL with P43S
notes: Human IgG1 / kappa
B14: anti-GPRC5D-anti-CD3 bispecific molecule C3048-C3E7036 (bispecific antibody)
scFv: GQVQLVQSGAEVKKPGSSVKVSCKASGGTFSRYAISWVRQAPGQGLEWMGGIIPIFGTANYAQKFQGRVTITADQSTRTAYMDLGRLRSEDTAVYYCALEGFRDSLKRNPFDIWGQGTMVTVSSGGGGSGGGGSGGGGSQSVVTQPPSVSAAPGQKVTISCSGGTTNIGSNYVSWYQQLPGTAPKFLMYENNKRPSGIPDRFSGSKSGTSATLAITGLQTGDEATYYCSTWDSSLNTGLFGGGTKLTVLGGGGSEVQLVESGGGLVQPGGSLRLSCAASGVTFNYYGMSWIRQAPGKGLEWVASITNSGGRIYYPDSVKGRFTISRENTQKTLYLQMNSLRAEDTAVYYCTLDGRDGWVAYWGQGTLVTVSSGGGGSGGGGSGGGGSNFMLTQPSSVSGVPGQRVTISCTGNTGNIGSNYVNWYQQLPGTAPKLLIYRDDKRPSGVPDRFSGSKSGTSASLAITGFQAEDEADYYCQSYSSGFIFGGGTKLTVLGAAAGAGGDYKDDDDKGAAAHHHHHH
notes: Tandem scFv
B15: anti-GPRC5D-anti-CD3 bispecific molecule C3022-C3E7036 (bispecific antibody)
scFv: GQVQLVQSGAEVKKPGASVKVSCKASGYTFTGYYMHWVRQAPGQGLEWMGRINPNSGGTNYAQKFQGRVTMTRDTSISTAYMELSGLRSDDTAVYYCASGSVRHPWGQGTLVTVSSGGGGSGGGGSGGGGSQPVLTQPPSASGTPGQRVTISCSGSRSNIGGNIVSWYQQFPGTAPRLLTYADNQRPSGVPDRFSGSKSGTSASLAISGLQSEDEADYYCAAWDDSLNGVVFGGGTKLTVLGGGGSEVQLVESGGGLVQPGGSLRLSCAASGVTFNYYGMSWIRQAPGKGLEWVASITNSGGRIYYPDSVKGRFTISRENTQKTLYLQMNSLRAEDTAVYYCTLDGRDGWVAYWGQGTLVTVSSGGGGSGGGGSGGGGSNFMLTQPSSVSGVPGQRVTISCTGNTGNIGSNYVNWYQQLPGTAPKLLIYRDDKRPSGVPDRFSGSKSGTSASLAITGFQAEDEADYYCQSYSSGFIFGGGTKLTVLGAAAGAGGDYKDDDDKGAAAHHHHHH
notes: Tandem scFv
B16: anti-GPRC5D-anti-CD3 bispecific molecule C3022-C3E7035 (bispecific antibody)
scFv: GQVQLVQSGAEVKKPGASVKVSCKASGYTFTGYYMHWVRQAPGQGLEWMGRINPNSGGTNYAQKFQGRVTMTRDTSISTAYMELSGLRSDDTAVYYCASGSVRHPWGQGTLVTVSSGGGGSGGGGSGGGGSQPVLTQPPSASGTPGQRVTISCSGSRSNIGGNIVSWYQQFPGTAPRLLTYADNQRPSGVPDRFSGSKSGTSASLAISGLQSEDEADYYCAAWDDSLNGVVFGGGTKLTVLGGGGSEVQLVESGGGLVQPGGSLRLSCAASGVTFNYYGMSWIRQAPGKGLEWVASITNSGGRIYYPDSVKGRFTISRENTQKTLYLQMNSLRAEDTAVYYCTLDGRDGWVAYWGQGTLVTVSSGGGGSGGGGSGGGGSMAQAVLTQPSSVSGVPGQRVTISCKRNTGNIGSNYVNWYQQLPGTAPKLLIYRDDKRPSGVPDRFSGSKSGTSASLAITGFQAEDEADYYCQSYSSGFIFGGGTKLTVLGAAAGAGGDYKDDDDKGAAAHHHHHH
notes: Tandem scFv
B17: anti-GPRC5D-anti-CD3 bispecific molecule C3048-C3E7035 (bispecific antibody)
scFv: GQVQLVQSGAEVKKPGSSVKVSCKASGGTFSRYAISWVRQAPGQGLEWMGGIIPIFGTANYAQKFQGRVTITADQSTRTAYMDLGRLRSEDTAVYYCALEGFRDSLKRNPFDIWGQGTMVTVSSGGGGSGGGGSGGGGSQSVVTQPPSVSAAPGQKVTISCSGGTTNIGSNYVSWYQQLPGTAPKFLMYENNKRPSGIPDRFSGSKSGTSATLAITGLQTGDEATYYCSTWDSSLNTGLFGGGTKLTVLGGGGSEVQLVESGGGLVQPGGSLRLSCAASGVTFNYYGMSWIRQAPGKGLEWVASITNSGGRIYYPDSVKGRFTISRENTQKTLYLQMNSLRAEDTAVYYCTLDGRDGWVAYWGQGTLVTVSSGGGGSGGGGSGGGGSMAQAVLTQPSSVSGVPGQRVTISCKRNTGNIGSNYVNWYQQLPGTAPKLLIYRDDKRPSGVPDRFSGSKSGTSASLAITGFQAEDEADYYCQSYSSGFIFGGGTKLTVLGAAAGAGGDYKDDDDKGAAAHHHHHH
notes: Tandem scFv

T1 sequence (Q9NZD1 whole entry): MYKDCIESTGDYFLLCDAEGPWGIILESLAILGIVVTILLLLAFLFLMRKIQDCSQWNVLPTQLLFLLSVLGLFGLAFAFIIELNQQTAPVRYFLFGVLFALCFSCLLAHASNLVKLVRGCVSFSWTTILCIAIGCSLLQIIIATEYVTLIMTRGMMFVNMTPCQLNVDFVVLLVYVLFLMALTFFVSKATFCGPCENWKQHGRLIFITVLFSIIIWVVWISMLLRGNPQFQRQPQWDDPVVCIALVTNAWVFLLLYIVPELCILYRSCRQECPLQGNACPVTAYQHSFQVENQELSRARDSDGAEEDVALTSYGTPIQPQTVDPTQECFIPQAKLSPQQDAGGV

The first assay has as its target T1, human GPRC5D (human, UniProt Q9NZD1 1-345).
T1 construct: whole, on cells; also called hGPRC5D; G-protein coupled receptor family C group 5 member D
In words: flow cytometry on KHM-1B cells (human GPRC5D), culture supernatant, PE anti-human IgG Fc, rMFI over human IgG isotype control. How it is done:
Human multiple myeloma cell line KHM-1B cells expressing GPRC5D were adjusted to a concentration of 2×10⁶ cells/mL with PBS containing 5% FBS, inoculated in an amount of 100 μL/well to a 96-well U-bottomed microplate, and centrifuged to remove a supernatant. The culture supernatant of each humanized anti-GPRC5D antibody obtained in Example 8)-3-1 or Human IgG isotype control antibody (Calbiochem/Merck Millipore Corp.) adjusted to 14 ng/mL to 30 μg/mL was added thereto in an amount of 100 μL/well, and the plate was left standing at 4° C. for 1 hour. The cells were washed twice with PBS containing 5% FBS. Then, R-Phycoerythrin AffiniPure F(ab′)2 Fragment Goat Anti-Human IgG, Fcγ Fragment Specific (Jackson ImmunoResearch Laboratories, Inc.) diluted 100-fold with PBS containing 5% FBS was added thereto in an amount of 100 μL/well, and the plate was left standing at 4° C. for 1 hour. The cells were washed twice with PBS containing 5% FBS and then resuspended in PBS containing 5% FBS, followed by detection using a flow cytometer (FACSCanto™ II; Becton, Dickinson and Company). The data was analyzed using Flowjo (Tree Star, Inc.). The PE fluorescence intensity of the cell fraction was plotted to a histogram, and the mean fluorescence intensity (MFI) was calculated. The MFI value of the control antibody was subtracted from the MFI value of the GPRC5D antibody to calculate a relative value of MFI (rMFI).
As to B1, the binding result is given as “binds”.
Same read-out and setting: next, B2: “binds”; B3: “binds”.
With B4, the binding result is listed as “binds”.
Still for that read-out and setting: in the case of B5 it was “binds”.
The same measure, in the same setting: in the case of B6 it was “binds”; in that of B7, “binds”; in that of B8, “binds”.
Still for that read-out and setting: in the case of B9 it was “binds”; in that of B10, “binds”.
B11: the binding result is recorded as “binds”.
With B12, the binding result is recorded as “binds”.
The same measure, in the same setting: next, B13: “binds”.

The target of a further assay is T2, cynomolgus monkey GPRC5D (cynomolgus monkey).
T2 construct: whole, on cells; Stably expressed on KMS-11 cells (KMS-11_cGPRC5D); also called cGPRC5D
Description: flow cytometry on KMS-11_cGPRC5D cells (cynomolgus monkey GPRC5D), PE anti-human IgG Fc detection, rMFI = MFI minus isotype control. Background: A flow cytometer gives signals particle by particle.
For orientation: EC50 (read off the curve) means the concentration needed to bring the measured effect to its halfway point. B2: the “EC50 (read off the curve)” value is about 2 nM.

The next assay has as its target T1, human GPRC5D. Description: flow cytometry on A4/Fuk cells (endogenous human GPRC5D), Penta-His Alexa Fluor 488 detection, rMFI = MFI minus sample without antibody. As to the method:
Lymphoma cell line A4/Fuk cells (JCRB Cell Bank) were adjusted to an appropriate concentration with PBS containing 5% FBS. LIVE/DEAD Fixable Near-IR Dead Cell Stain Kit was added to the cells, which were then left standing at 4° C. for 30 minutes. The cells were washed twice with PBS containing 5% FBS, then adjusted to a concentration of 1×10⁶ cells/mL with PBS containing 5% FBS, inoculated in an amount of 100 μL/well to a 96-well U-bottomed microplate, and centrifuged to remove a supernatant. Each anti-GPRC5D-anti-CD3 bispecific molecule (C2037-C3E7034 to C3022-C3E7036 prepared in Example 12) diluted with PBS containing 5% FBS were added thereto in an amount of 100 μL/well, and the plate was left standing at 4° C. for 60 minutes. The cells were washed twice with PBS containing 5% FBS. Then, Penta-His Alexa Fluor 488 diluted with PBS containing 5% FBS was added thereto in an amount of 30 μL/well, and the plate was left standing at 4° C. for 30 minutes. The cells were washed twice with PBS containing 5% FBS and then resuspended in PBS containing 5% FBS, followed by detection using a flow cytometer (FACSCanto™ II). The data was analyzed using Flowjo. The mean fluorescence intensity (MFI) of Alexa Fluor 488 in a fraction free from dead cells was calculated. The MFI value of the antibody-unsupplemented sample was subtracted from the MFI value of the antibody-supplemented sample to calculate a relative value of MFI (rMFI).
Take B14: the binding result was “binds”.
On the same count and under the same terms, in the case of B15 it was “binds”; in that of B16, “binds”.
Still for that read-out and setting: in the case of B17 it was “binds”.
